From patent publication US12534533B2, “Anti-chemokine like receptor 1 humanized antibodies and their therapeutic applications” (OSE IMMUNOTHERAPEUTICS, priority 2019, dated 2026)
Numbering of substitutions follows the chain as printed.

What was measured:
[1] = tested on: peritonitis induced by Zymosan A; experiment: peritonitis model (Zymosan A); type: in vivo, mice; conditions: vs isotype control
Experimental: FIG. 7. Effect of an anti-CMKLR1 antibody on a mice peritonitis model. Preventive injection of anti-CMKLR1 was performed before Zymosan A injection (1 mg per mouse in 1 mL): RvE1 (1 μg per mouse) (●), 2G1 antibody (10 μg per mouse) (□) or isotype control antibody (x). A. PMN numbered during the first 50 hours after Zymosan A injection. B. Macrophages numbered during the first 50 hours after Zymosan A injection. C. Resolution index.
Common peritonitis is induced by intraperitoneal injection of Zymosan A® (1 mg per mouse in 1 mL). Preventive injection of anti-CMKLR1 was performed 5 minutes before Zymosan A injection: RvE1 (1 μg per mouse), 2G1 antibody (10 μg per mouse). Murine peritoneal polymorphonuclear neutrophil (PMN) and macrophages were collected at 2-4-8-16-24 and 48 h after Zymosan A injection and numbered by flow cytometry analysis to determinate the resolution index (Bannenberg et al., 2005).

[2] = tested on: Mice dendritic cells; experiment: DCs maturation and differentiation, activation markers by FACS; type: cell-based; conditions: compared to the excipient or isotype control; FIG. 16
Experimental: FIG. 1. Effect of the anti-CMKLR1 variants 1G1, 2G1, 3G1 and 4G1 chimeric antibodies on the DCs maturation and differentiation. Mice dendritic cells were incubated during maturation phase (24 h or 48 h) followed by a differentiation phase with excipient or RvE1 or anti-CMKLR1 antibodies variants (mutations on positions 1 and 2 of SEQ ID No. 8, corresponding to the VH-CDR3: 1G1 (LL), 2G1 (LI), 3G1 (IL) or 4G1 (II) or isotype controls (hIgG1 or mIgG)). Cells were then stained for FACS analysis with cell marker antibodies: A. CD80-PE; B. CD86-FITC; C. CD103-PerCPCy5.5; D. I/Ab-APC. Mean of Fluorescence was determined in each condition. E and F represent the viability of the cells measured by FACS using LIVE/DEAD® kit from Life Technologies in each condition after 24 or 48 hours of maturation respectively.
FIG. 16. Study of the myeloid cell activation markers after CMKLR1 pathway activation. Dendritic cells incubated in excipient, RvE1, 2G1 or isotype control (hIgG1) were then stained for FACS analysis with marker antibodies: A. CD80-PE. B. CD86-FITC. C. CD103-PerCPCy5.5. D. CD40-PeCy7. E. I/Ab-APC. Mean of Fluorescence was determined in each condition.
Bone marrow cells were harvested and cultured in RPMI medium supplemented with 10% FBS, glutamine and antibiotics and the dendritic cell differentiation was induced by GM-CSF at 20 ng/ml for 7 days. Then, immature dendritic cells (iDC) were collected and cultured for 24 hours with LPS (100 ng/ml) to induce the maturation from iDC to mDC. Treatments were added during differentiation and maturation at 2 μg/ml.
Dendritic cells were resuspended in PBS-FBS-EDTA and incubated with live and dead (LIVE/DEAD® Fixable Dead Cell Stains Yellow-Life Technologies) for 30 minutes on ice. Staining of CD11c-BV711, CD11b-APCCy7, I/Ab-APC, CD103-PerCPCy5.5, CCR7-V450, CD40-PeCy7, CD80-PE, CD86-FITC (all provided by BD Pharmingen) were performed.

[3] = tested on: colitis induced by TNBS; experiment: acute inflammatory colitis model induced by TNBS; type: in vivo, mice; conditions: RvE1 1 μg per mouse daily, 2G1 10 μg per mouse; FIG. 3
Experimental: FIG. 3. Effect of an anti-CMKLR1 antibody on a mice acute inflammatory colitis model induced by TNBS. Mice received 200 μL of the haptenating agent TNBS at 5% in 50% ethanol on day 0 and then were injected with isotype control hIgG1 (10 μg per mouse) (x), RvE1 (1 μg per mouse) daily (●), or 2G1 antibody (10 μg per mouse) three times (□) for 5 days, or non-treated (wild type animals) (▴). Mice were sacrificed colon length was measured in each condition.
Colitis was induced in 8-10 weeks-old-C57Bl/6 male mice by intrarectal injection of 200 μL of the haptenating agent TNBS at 5% in 50% ethanol on day 0. Treatments were injected intra-peritoneally; RvE1 (1 μg per mouse) daily for three days, or 2G1 antibody (10 μg per mouse) twice for 3 days. Colitis follow-up consisting of body weight and stool score (0: normal stool; 4: blood in stool) parameters were performed daily (data not represented). When mice are euthanized, colon length representing the pathology severity was measured.

[4] = biological target: T1, Biot-C7 peptide (human ChemR23 peptide, SEQ ID No. 60) (Homo sapiens, UniProt Q99788); experiment: activity ELISA assay, binding of biotinylated C7 peptide; conditions: compared to wild-type 2G1; FIG. 23, FIG. 33
T1 construct: purchased synpeptide; host or cells: chemical synthesis
T1 sequence (Q99788 275-307 limits assumed): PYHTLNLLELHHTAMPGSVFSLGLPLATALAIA
From the text: FIG. 23. Binding recognition of C7 peptide by humanized anti-CMKLR1 derived from 2G1. Binding of C7biot in the supernatant of CHO cells transfected with different combinations of heavy and light chains (VHWT+VLWT: combination of SEQ ID No. 37 and SEQ ID No. 49; HCLC: combination of SEQ ID No. 42 and SEQ ID No.52; HDLC: combination of SEQ ID No. 43 and SEQ ID No.52; HCLD: combination of SEQ ID No. 42 and SEQ ID No.53; HDLD: combination of SEQ ID No. 43 and SEQ ID No.53).
FIG. 24. ED50 of anti-CMKLR1 derived from 2G1 antibody. 2G1 wt: HALA: combination of SEQ ID No. 41 and SEQ ID No. 50; combination of SEQ ID No. 37 and SEQ ID No. 49; HCLC: combination of SEQ ID No. 42 and SEQ ID No.52; HDLC: combination of SEQ ID No. 43 and SEQ ID No.52; HCLD: combination of SEQ ID No. 42 and SEQ ID No.53; HDLD: combination of SEQ ID No. 43 and SEQ ID No.53.
FIG. 33—Binding of purified antibodies on human ChemR23 peptide by ELISA assay (A), with ED50 concentration (ng/ml) (B). For activity ELISA assay, donkey anti-human IgG, Fc specific (Jackson Immunoresearch; USA; reference 709-005-098) was immobilized on plastic at 1.3 μg/ml in borate buffer (pH9) and purified antibody was added to measure binding in BSA1% buffer, compared to wild-type 2G1.
For activity ELISA assay, donkey anti-human IgG, Fc specific (Jackson Immunoresearch; USA; reference 709-005-098) was immobilized on plastic at 1.3 μg/ml in borate buffer (pH9) and purified antibody were added to measure binding in BSA1% buffer, compared to wild-type 2G1.
For activity ELISA assay, donkey anti-human IgG, Fc specific (Jackson Immunoresearch; USA; reference 709-005-098) was immobilized on plastic at 1.3 μg/ml in borate buffer (pH9) and purified antibody was added to measure binding in BSA1% buffer, compared to wild-type 2G1.

[5] = tested on: PMN from healthy volunteers; experiment: Percentage of dead PMN (mortality of neutrophils) on coated antibodies; type: cell-based, human
Experimental: […] Mortality of PMN was analyzed by incubating PMN with specific markers of the mortality and viability and then counted by picture analysis.
(§1) FIG. 36—Increase of dead PMN neutrophils in vitro with anti-ChemR23 antibodies coated. PMN from healthy volunteers were incubated in culture medium with coated HEF-LDT52S, HEF-LEF and HDLD antibody variants at 10 μg/mL for 24 h and stained either with a dead/viability kit (LIVE/DEAD (Invitrogen)). The percentages of positive cells were obtained by analyzing the pictures with Fiji software. Isotype control was added as control.
(§2) PMN from healthy volunteers were incubated in culture medium with coated Ab at 10 μg/mL for 24 h or 5 h and stained either with a dead/viability kit (LIVE/DEAD (Invitrogen)) or a specific marker of reactive oxygen species (ROS) respectively. The percentages of positive cells were obtained by analyzing the pictures with ImageJ software.
as §1, with “PMN” for “FIG. 36—Increase of dead PMN neutrophils in vitro with anti-ChemR23 antibodies coated. PMN”

[6] = tested on: ROS production by PMN from healthy volunteers; experiment: ROS test in PMN; type: cell-based, human; conditions: coated Ab at 10 μg/mL, after 5 h; FIG. 26C
Experimental: (§3) Neutrophils were isolated from blood of healthy volunteers and cultured for 24 h (Mortality analysis), or 4 h, 6 h, 11 h (Caspase-3 assay), or 5 h (ROS assay) on coated Iso ctrl (cross), chimeric anti-ChemR23 2G1 (square) or different humanized versions of the 2G1 (diamonds). Mortality of PMN was analyzed by incubating PMN with specific markers of the mortality and viability and then counted by picture analysis.
as §2

[7] = tested on: Caspase-3 in PMN from healthy volunteers; experiment: Caspase-3 expression in PMN by Western Blot; type: cell-based, human; conditions: coated Ab at 10 μg/mL, FIG. 26B
Experimental: as §3
PMN from healthy volunteers were incubated in culture medium with coated Ab at 10 μg/mL for different times and collected for Caspase-3 staining analyzed by Western Blot. The intensity of Capase-3 expression was calculated on WB.

Molecule: CC[C@@H](O)/C=C/C=C\C[C@@H](O)/C=C/C=C/C=C\[C@@H](O)CCCC(=O)O [RvE1, Resolvin E1, reference compound]
- PMNs number ([1]; first 50 hours after Zymosan A, FIG. 7A): slightly less
- Macrophages number ([1]; first 50 hours after Zymosan A, FIG. 7B): slightly less
- resolution index ([1]; FIG. 7C): better resolution index
- expression of CD80, CD86, CD103, CD40 and IAb [2]: strong decrease
- colon length [3]: the same as normal animal

B1: HCLC: humanized 2G1 variant: combination of SEQ ID No. 42 and SEQ ID No. 52 (antibody, V domains shown)
VH: EVQLVESGGGLVQPGGSLRLSCAASGFTFSSYGMSWVRQAPGKGLELVATINRYGGSTYYAASVKGRFTISRDNSKNTLYLQMNSLRAEDTAVYYCPKLIYYGNEGDSWGQGTLVTVSS
VL: AIQLTQSPSSLSASVGDRVTITCRASQSVSFLHWYQQKPGKAPKRWIYDATKLTSGVPSRFSGSGSGTDFTLTISSLQPEDFATYYCQQWNSKPPLTFGGGTKVEIK
- binding activity to antigen-specific peptides (C7 peptide) [4]: even better than the germline antibody HALA and the wild type antibody 2G1

B2: HCLD: humanized 2G1 variant: combination of SEQ ID No. 42 and SEQ ID No. 53 (antibody, V domains shown)
VH: B1 VH
VL: B1 VL with N91Q
- binding activity to antigen-specific peptides (C7 peptide) [4]: even better than the germline antibody HALA and the wild type antibody 2G1

B3: HDLC: humanized 2G1 variant: combination of SEQ ID No. 43 and SEQ ID No. 52 (antibody, V domains shown)
VH: B1 VH with G33A
VL: B1 VL
- binding activity to antigen-specific peptides (C7 peptide) [4]: even better than the germline antibody HALA and the wild type antibody 2G1

B4: HALA: humanized 2G1 germline antibody: combination of SEQ ID No. 41 and SEQ ID No. 50 (antibody, V domains shown)
VH: B1 VH with A61P, A62D, K98R
VL: B1 VL with R24S, Q27S, L32M, A50T, F70Y
- percentage of dead cells ([5]; at 48 hours, compared with IgG1 control): similar
- ROS production by PMN [6]: increase the ROS production
- caspase-3 cleavage ([7]; 4 h, 6 h, 11 h): increases caspase-3 cleavage
- caspase-3 activity [7]: higher effect on caspase 3 activity as compared to the 2G1 antibody

B5: HEF-LEF: humanized 2G1 variant: HEF (SEQ ID NO: 91) with LEF (SEQ ID NO: 55) (antibody, V domains shown)
VH: B1 VH with G33A, A49S, N52S, R53G, Y54S
VL: B1 VL with W46L, T51S, T54E, N91Q
- mortality of PMN (percentage of dead PMN) ([5]; coated Ab at 10 μg/mL, 24 h, FIG. 26, FIG. 36): accelerate the death of PMN
